Patent US20030041342

Biological target: maize CDK (cyclin-dependent protein kinase) from immature ear extract

B1: GST-ZMWEE1 (glutathione S-transferase ZMWEE1 fusion protein, from pGEX2Tzmwee1, made in E. coli) (protein)
chain: CTPDYITPEMPQVANEFDDDDKENIPCPKSPEKSANPRSKRYRTDCSPKAREVTDFSFDHQITPVLFDSLTRDDSEEEQPKQPALEKRGGYVSQSAVALRCRVMPPPCVKNPYLNTDPCIDAAVYGGRQCNSAVFSPSIGGNGLSRYRTDFHEIEKIGYGNFSVVFKVLNRIDGCLYAVKRSIKQLHNDMERRQAVKEVQAMAALGSHENIVRYFTSWFENEQLYIQMELCDRCLSMNRNQPVKRGEALELLYQICKGLDFMHERGIAHLDVKPDNIYVRNGIYKLGDFGCATLVNRSLAIEDGDSRYMPPEMLNDKYEHLDKVDIFSLGAAVYELIRGTPLPESGSHFTSIREGKIALLPGCPMQFQSLIKSMMDPDPVRRPSAKEILRHPSFDKLHKASSK
CDK activity (histone H1 kinase activity) of CDK adsorbed by p13^suc1: GST-ZMWEE1, with or without pre-incubation, inhibited CDK activity | histone H1-kinase activity in crude immature ear extract: GST-ZMWEE1 inhibits the histone H1-kinase activity in the extract
